Numbering of substitutions follows the chain as printed. Each block holds one binder with its values, some of them ahead of it.
Assays:
[1] = biological target: T1, soluble heterodimeric hCD3ε/δ.mFc protein (human); assay: SPR MASS-1, 37 C, antigen-capture format
T1 construct: also called soluble human CD3; soluble heterodimeric CD3 protein
T1 chain 1: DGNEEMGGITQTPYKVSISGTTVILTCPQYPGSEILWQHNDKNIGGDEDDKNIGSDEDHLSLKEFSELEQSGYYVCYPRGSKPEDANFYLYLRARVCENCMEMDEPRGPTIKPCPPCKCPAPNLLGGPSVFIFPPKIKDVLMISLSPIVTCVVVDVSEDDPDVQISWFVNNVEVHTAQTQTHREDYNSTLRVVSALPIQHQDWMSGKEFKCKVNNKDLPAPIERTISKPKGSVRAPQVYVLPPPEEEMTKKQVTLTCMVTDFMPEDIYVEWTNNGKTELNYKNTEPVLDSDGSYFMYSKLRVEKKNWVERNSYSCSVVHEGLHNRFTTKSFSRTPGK
T1 chain 2: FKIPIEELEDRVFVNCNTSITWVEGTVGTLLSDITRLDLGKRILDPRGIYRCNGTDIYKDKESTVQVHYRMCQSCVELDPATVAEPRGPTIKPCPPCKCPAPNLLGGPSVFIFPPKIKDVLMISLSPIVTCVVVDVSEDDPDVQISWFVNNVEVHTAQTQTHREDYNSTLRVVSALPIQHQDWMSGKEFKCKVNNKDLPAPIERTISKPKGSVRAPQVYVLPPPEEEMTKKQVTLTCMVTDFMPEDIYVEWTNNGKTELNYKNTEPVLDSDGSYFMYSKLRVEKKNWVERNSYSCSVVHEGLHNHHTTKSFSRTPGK
Experimental: (§1) Measurements were conducted on a Sierra Sensors MASS-1 instrument.
(§2) In the antigen-capture format, the MASS-1 high-density amine sensor surface was derivatized with a goat anti-mouse IgG2a polyclonal antibody (Southern Biotech). Soluble heterodimeric CD3 protein was captured and the respective antibodies were injected over the captured antigen.
(§3) Kinetic association (kₐ) and dissociation (kd) rate constants were determined by processing and fitting the data to a 1:1 binding model using MASS-1 AnalyserR2 curve fitting software. Binding dissociation equilibrium constants (KD) and dissociative half-lives (t_{1/2}) were calculated from the kinetic rate constants as: KD (M)=kd/kₐ; and t_{1/2} (min)=(ln 2/(60*kd).

[2] = biological target: T2, human CD3 on CD3-expressing cells (Jurkat, human T cells) (human, UniProt P07766 23-207; P04234 22-171); assay: FACS on Jurkat cells
T2 construct: On cells CD3 stands within the T cell receptor complex (also gamma and zeta chains); also called human CD3 expressing Jurkat cells
Experimental: (§4) Briefly, 2×10⁵ cells/well of human CD3-expressing Jurkat, cynomolgus T, or human PSMA-specific expressing cells were incubated with a serial dilution of bispecific antibodies for 30 min at 4° C. After incubation, cells were washed and a goat F(ab′)₂ anti-human Fcγ PE labeled secondary (Jackson Immunolabs) was added to the cells for an additional 30 min. Next, cells were washed, re-suspended in cold PBS+1% BSA and analyzed via flow cytometry on a BD FACS Canto II.
(§5) For FACS analysis, cells were gated by forward scatter height vs. forward scatter area for single events selection, followed by side and forward scatters. The EC₅₀ for cell binding titration was determined using Prism software. Values were calculated using 4-parameter non-linear regression analysis.

[3] = biological target: T2, human CD3 on CD3-expressing cells …; assay: cell-based or functional assay
Target sequence in this assay (P07766 23-207 limits assumed, chain 1 of 2): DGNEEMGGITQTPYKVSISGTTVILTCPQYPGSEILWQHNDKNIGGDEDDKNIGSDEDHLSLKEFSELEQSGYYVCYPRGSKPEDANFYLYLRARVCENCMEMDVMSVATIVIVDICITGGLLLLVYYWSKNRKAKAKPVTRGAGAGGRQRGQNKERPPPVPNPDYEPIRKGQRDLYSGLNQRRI
Target sequence in this assay (P04234 22-171 limits assumed, chain 2 of 2): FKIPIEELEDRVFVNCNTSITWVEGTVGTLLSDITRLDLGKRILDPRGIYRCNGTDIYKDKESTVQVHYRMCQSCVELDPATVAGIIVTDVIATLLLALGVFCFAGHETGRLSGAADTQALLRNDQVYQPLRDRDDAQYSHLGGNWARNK

[4] = biological target: T3, human PSMA on PSMA-expressing cells (human, UniProt Q04609 1-750); assay: cell-based or functional assay
[5] = biological target: T3, human PSMA on PSMA-expressing cells; assay: FACS on B16F10.9/PSMA cells
Experimental: as §4, §5

[6] = biological target: T1, soluble heterodimeric hCD3ε/δ.mFc …; assay: SPR MASS-1, 37 C, antigen-capture (hCD3ε/δ.mFc captured), antibody injected
Experimental: as §1, §2, §3

[7] = biological target: T4, cynomolgus CD3 on cynomolgus T cells (cynomolgus, UniProt Q95LI5 22-198; Q95LI8 22-171); assay: FACS on cynomolgus T cells
T4 construct: whole, on cells; also called Cyno T-cells; monkey T-cells
Experimental: as §4, §5

T4 sequence (Q95LI5 22-198, form in doubt, chain 1 of 2): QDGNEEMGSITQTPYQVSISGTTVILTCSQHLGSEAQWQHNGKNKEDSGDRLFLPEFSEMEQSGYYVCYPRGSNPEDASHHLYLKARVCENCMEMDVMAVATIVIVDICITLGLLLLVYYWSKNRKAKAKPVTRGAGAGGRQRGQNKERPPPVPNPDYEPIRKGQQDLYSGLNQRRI
T4 sequence (Q95LI8 22-171, form in doubt, chain 2 of 2): as the sequence (P04234 22-171 limits assumed, chain 2 of 2) above, with I5V, N15K, I20V, S32T, D33N, I34N, T64A, S74N, V83L, H141R counted along it
T3 sequence (Q04609 whole entry): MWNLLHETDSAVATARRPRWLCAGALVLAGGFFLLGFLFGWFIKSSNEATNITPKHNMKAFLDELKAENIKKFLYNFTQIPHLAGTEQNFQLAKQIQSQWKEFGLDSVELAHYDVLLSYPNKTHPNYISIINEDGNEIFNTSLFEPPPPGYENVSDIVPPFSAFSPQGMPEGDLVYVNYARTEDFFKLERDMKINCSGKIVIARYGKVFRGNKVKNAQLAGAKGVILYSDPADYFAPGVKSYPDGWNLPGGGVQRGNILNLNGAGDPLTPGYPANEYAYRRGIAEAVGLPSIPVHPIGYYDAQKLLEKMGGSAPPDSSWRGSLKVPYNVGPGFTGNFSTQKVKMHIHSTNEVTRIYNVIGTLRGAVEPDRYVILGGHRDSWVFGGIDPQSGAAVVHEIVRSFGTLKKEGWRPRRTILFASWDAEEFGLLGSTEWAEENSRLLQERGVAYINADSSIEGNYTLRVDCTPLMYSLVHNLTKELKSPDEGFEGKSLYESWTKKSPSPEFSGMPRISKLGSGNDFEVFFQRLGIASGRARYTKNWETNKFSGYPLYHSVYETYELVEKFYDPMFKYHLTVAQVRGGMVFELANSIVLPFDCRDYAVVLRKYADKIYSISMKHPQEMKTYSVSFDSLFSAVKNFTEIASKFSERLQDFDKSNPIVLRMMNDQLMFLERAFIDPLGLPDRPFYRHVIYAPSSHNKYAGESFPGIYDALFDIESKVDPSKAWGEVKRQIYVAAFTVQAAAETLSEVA

B1: BSPSMA/CD3-004 (bispecific antibody, IgG4, V domains shown)
VH 1: QVQLVESGGGVVQPGRSLRLSCAASGFTFSSYGMHWVRQAPGKGLEWVAVISYAGNNKYYADSVKGRFTVSRDNSKKTLYLQMNSLRSEDTAVYYCAKDSYYDFLTDPDVLDIWGQGTMVTVSS
VH 2: EVQLVESGGGLVQPGRSLRLSCAASGFTFDDYSMHWVRQAPGKGLEWVSGISWNSGSIGYADSVKGRFTISRDNAKNSLYLQMNSLRAEDTALYYCAKDGSGYGKFYYYGMDVWGQGTTVTVSS
VL: DIQMTQSPSSLSASVGDSVTITCRASQSINNYLNWYQQKPGKAPKLLIYTASSLLSGVPSRFSGSGSGTDFTLTISGLHPEDFATYFCQQSFSTPPITFGQGTRLDIK
notes: modified (chimeric) IgG4 Fc domain; also called PSMA-VH-11810 x CD3-VH-G5
binding result [1]: no binding
EC50 [2]: ~1000 nM
T cell activation EC50 [3]: 13.4 pM
22RV1 Cell depletion EC50 [4]: 6.31 pM
C4-2 Cell depletion EC50 [4]: 21.5 pM
TrampC2.PSMA Cell depletion EC50 [4]: 11.5 pM
EC50 [5]: 1.31 nM

B5: BSPSMA/CD3-1300 (bispecific antibody, IgG4, V domains shown)
VH 1: B1 VH 1
VH 2: B1 VH 2 with D99Y, M111L
VL: B1 VL
notes: modified (chimeric) IgG4 Fc domain; also called PSMA-VH-11810 x CD3-VH-G13
EC50 [2]: 102 nM
T cell activation EC50 [3]: 2.31 pM
C4-2 Cell depletion EC50 [4]: 8.74 pM
Kd [6]: 122 nM
T½ [6]: 4.7 min
koff [6]: 0.00248 s⁻¹
kon [6]: 20300 M⁻¹ s⁻¹
EC50 [5]: 1.25 nM
EC50 [7]: 2170 nM

B7: BSPSMA/CD3-1700 (bispecific antibody, IgG4, V domains shown)
VH 1: B1 VH 1
VH 2: B1 VH 2 with I58K, D99Y
VL: B1 VL
notes: modified (chimeric) IgG4 Fc domain; also called PSMA-VH-11810 x CD3-VH-G17
EC50 [2]: 200 nM
T cell activation EC50 [3]: 3.89 pM
22RV1 Cell depletion EC50 [4]: 2.07 pM
C4-2 Cell depletion EC50 [4]: 7.37 pM
Kd [6]: 65.2 nM
T½ [6]: 3.8 min
koff [6]: 0.00307 s⁻¹
kon [6]: 47000 M⁻¹ s⁻¹
EC50 [5]: 1.34 nM
EC50 [7]: 3350 nM

B8: BSPSMA/CD3-005 (bispecific antibody, IgG4, V domains shown)
VH 1: B1 VH 1
VH 2: B1 VH 2 with D99Y
VL: B1 VL
notes: modified (chimeric) IgG4 Fc domain; also called PSMA-VH-11810 x CD3-VH-G20
EC50 [2]: 210 nM
T cell activation EC50 [3]: 6.11 pM
22RV1 Cell depletion EC50 [4]: 8.32 pM
C4-2 Cell depletion EC50 [4]: 13.9 pM
Kd [6]: 334 nM
T½ [6]: 2 min
koff [6]: 0.00577 s⁻¹
kon [6]: 17300 M⁻¹ s⁻¹
EC50 [5]: 2.09 nM
EC50 [7]: 6140 nM

B9: BSPSMA/CD3-400 (bispecific antibody, IgG4, V domains shown)
VH 1: B1 VH 1
VH 2: B1 VH 2 with S33A
VL: B1 VL
notes: modified (chimeric) IgG4 Fc domain; also called PSMA-VH-11810 x CD3-VH-G4
binding result [1]: no binding
binding result [2]: no binding
EC50 [5]: 1.72 nM

B11: BSPSMA/CD3-800 (bispecific antibody, IgG4, V domains shown)
VH 1: B1 VH 1
VH 2: B1 VH 2 with D99Y, Y108H, M111L
VL: B1 VL
notes: modified (chimeric) IgG4 Fc domain; also called PSMA-VH-11810 x CD3-VH-G8
EC50 [2]: 19.3 nM
T cell activation EC50 [3]: 1.76 pM
TrampC2.PSMA Cell depletion EC50 [4]: 9.27 pM
Kd [6]: 19.4 nM
T½ [6]: 10 min
koff [6]: 0.00115 s⁻¹
kon [6]: 59500 M⁻¹ s⁻¹
EC50 [5]: 1.31 nM
EC50 [7]: 19.6 nM

More lines, in order of falling EC50 [5], values ahead:

EC50 [2]: 16.5 nM
T cell activation EC50 [3]: 1.23 pM
C4-2 Cell depletion EC50 [4]: 10.3 pM
TrampC2.PSMA Cell depletion EC50 [4]: 6.43 pM
EC50 [5]: 2.26 nM
EC50 [7]: 14.2 nM
B3: BSPSMA/CD3-003 (bispecific antibody, IgG4, V domains shown)
VH 1: B1 VH 1
VH 2: B1 VH 2 with I58K, D99Y, Y108H, M111L
VL: B1 VL
notes: modified (chimeric) IgG4 Fc domain; also called PSMA-VH-11810 x CD3-VH-G

binding result [1]: no binding
EC50 [2]: 126 nM
EC50 [5]: 2.16 nM
B12: BSPSMA/CD3-1800 (bispecific antibody, IgG4, V domains shown)
VH 1: B1 VH 1
VH 2: B1 VH 2 with M111L
VL: B1 VL
notes: modified (chimeric) IgG4 Fc domain; also called PSMA-VH-11810 x CD3-VH-G18

binding result [1]: no binding
binding result [2]: no binding
T cell activation EC50 [3]: 18.5 pM
EC50 [5]: 1.9 nM
B6: BSPSMA/CD3-300 (bispecific antibody, IgG4, V domains shown)
VH 1: B1 VH 1
VH 2: B1 VH 2 with K105Y
VL: B1 VL
notes: modified (chimeric) IgG4 Fc domain; also called PSMA-VH-11810 x CD3-VH-G3

binding result [1]: no binding
binding result [2]: no binding
EC50 [5]: 1.88 nM
B10: BSPSMA/CD3-200 (bispecific antibody, IgG4, V domains shown)
VH 1: B1 VH 1
VH 2: B1 VH 2 with S33A, K105Y
VL: B1 VL
notes: modified (chimeric) IgG4 Fc domain; also called PSMA-VH-11810 x CD3-VH-G2

EC50 [2]: 274 nM
T cell activation EC50 [3]: 1.12 pM
TrampC2.PSMA Cell depletion EC50 [4]: 3.5 pM
Kd [6]: 113 nM
T½ [6]: 2.3 min
koff [6]: 0.00495 s⁻¹
kon [6]: 43800 M⁻¹ s⁻¹
EC50 [5]: 1.43 nM
B13: BSPSMA/CD3-900 (bispecific antibody, IgG4, V domains shown)
VH 1: B1 VH 1
VH 2: B1 VH 2 with I58K, Y108H, M111L
VL: B1 VL
notes: modified (chimeric) IgG4 Fc domain; also called PSMA-VH-11810 x CD3-VH-G9

EC50 [2]: 31.9 nM
Kd [6]: 53.3 nM
T½ [6]: 3.5 min
koff [6]: 0.00331 s⁻¹
kon [6]: 62100 M⁻¹ s⁻¹
EC50 [5]: 1.3 nM
EC50 [7]: 170 nM
B2: BSPSMA/CD3-1400 (bispecific antibody, IgG4, V domains shown)
VH 1: B1 VH 1
VH 2: B1 VH 2 with D99Y, Y108H
VL: B1 VL
notes: modified (chimeric) IgG4 Fc domain; also called PSMA-VH-11810 x CD3-VH-G14

EC50 [2]: 277 nM
T cell activation EC50 [3]: 1.28 pM
TrampC2.PSMA Cell depletion EC50 [4]: 5.97 pM
Kd [6]: 185 nM
T½ [6]: 1.8 min
koff [6]: 0.00637 s⁻¹
kon [6]: 34400 M⁻¹ s⁻¹
EC50 [5]: 1.19 nM
B4: BSPSMA/CD3-1000 (bispecific antibody, IgG4, V domains shown)
VH 1: B1 VH 1
VH 2: B1 VH 2 with I58K, D99Y, M111L
VL: B1 VL
notes: modified (chimeric) IgG4 Fc domain; also called PSMA-VH-11810 x CD3-VH-G10

EC50 [2]: 18.3 nM
T cell activation EC50 [3]: 1.11 pM
TrampC2.PSMA Cell depletion EC50 [4]: 3.86 pM
Kd [6]: 11.1 nM
T½ [6]: 11.3 min
koff [6]: 0.00102 s⁻¹
kon [6]: 92100 M⁻¹ s⁻¹
EC50 [5]: 1.03 nM
EC50 [7]: 890 nM
B14: BSPSMA/CD3-1100 (bispecific antibody, IgG4, V domains shown)
VH 1: B1 VH 1
VH 2: B1 VH 2 with I58K, D99Y, Y108H
VL: B1 VL
notes: modified (chimeric) IgG4 Fc domain; also called PSMA-VH-11810 x CD3-VH-G11

Source: patent US20190127480A1 (Regeneron, published 2019)
